The nanobody polyreactivity screen of Harvey et al. (2022)

Assay: yeast display, Sf9 membrane polyspecificity reagent, FACS + sequencing; frameworks hold sequencing errors
Procedure, shortened: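 After 36–48 hours of galactose induction, yeast (Saccharomyces cerevisiae BJ5465) displaying a synthetic nanobody library were stained at 4 °C for 1 hour with 10% biotinylated, detergent-solubilized Sf9 membrane reagent. Streptavidin microbeads enriched the stained cells before FACS sorting into low and high (top ~1%) gates on anti-HA and streptavidin fluorescence. Each clone's polyreactivity label reflects its gate of origin.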

QVQLVESGGGLVQAGGSLRLSCAASGRIFFTNAMGWYTQAPGKERELVAAISKSGARTYYADSVKGRFTISRDNAKNTVYLLMNSLKPEDTAVYYCAADVCVYGYDYWGQGTQVTVSS
polyreactivity (PSR sort gate): high polyreactivity

QFQLVESGGGLDQAGGSLRLSCAASGSIFYYNAMGWYRQAPGKERELVAAIDLNDGITYYADSVKGRFTISRDNAKNTVYLQMNSLKPEDTAVYYCAADSYYFLYDSWGQGTQVTVSS
polyreactivity (PSR sort gate): high polyreactivity

QVQLVESGGGLVQAGGSLRLSCAASGLTLYYYAMGWYRQAPGKERELVAAISYSGGSTYYADSVKGRFTISRDNAKNTVYLQMNSLKPEDTAVYYCAADGDSDIRDDYWGQGTQVTVSS
polyreactivity (PSR sort gate): low polyreactivity

QVHLVESGGGLVQAGGSLRLSCAATGSTISRYAMGWYRPAPGKERELVAAISWGGNTYYADSVKGRFTISRDNAKNTVYLQMNSLKPEDTAVYYCNRYSKLYNTMDYWGQGTQVTVSS
polyreactivity (PSR sort gate): high polyreactivity

QVQLVESGRGLVEAGGSLRLSCAASGFIFLPYAMVWYRQAPGKERELVAAITRGGRTYYADSVNRRFTISRDNAKNTVYLQMNSLKPEDTAVYDCAATTYLVWGYNYWGQGTQVTVSS
polyreactivity (PSR sort gate): low polyreactivity

QVQLVESGGGFVQAGGSRRLSCAASGRIFDDNAMGGYRPAPGKERELVAAISSGDYTKYADSVKGRFTISRDNSKNSVYLQMNSLKPEDTAVYYCAADIVSDSFYQPEYDYWGQGTQVTVSS
polyreactivity (PSR sort gate): low polyreactivity

QVQLVESGGGLVQAGGSLRLSCAASGRTFKYNAMVWYRQAPGKERELVATISGSGGRKYYADSVKGRFTISRDNAKNTVYLQMNSLKPEDTAVYYCKAPRVKWLDWGQGTKVTVSS
polyreactivity (PSR sort gate): high polyreactivity

QVQLVESGGGLVQAGGSLRLSCAASGSTFGAYAMGWSRKAPGKERELVAAISRRGGSTYYADSVKGRFTISRDNAKNTVYLQMNSLKPEDTAVYYCNAVGTRVDGEHYYWGQGTQVTVSS
polyreactivity (PSR sort gate): high polyreactivity

QVQLVESGGGLVQAGGSLRLICAASGITFVYYAMGWYRQAPGKERELVAAISTSGDSTYYADSVKGRFTISRDNAKNTVYLPMNSLKPEDTAVYYCAADADYYQYGWRVYYWGQGTQVTVSS
polyreactivity (PSR sort gate): low polyreactivity

QVQLVESGGGLVQAGGSLRLSCAASGRTFGPYVMGGDRQAPGKERELVAGITSGGSTNYADSVKGRFTISRDNAKNTVYRQMNSLKPEDTAVYYCNADYLIYFGLYEYWGHGTQVTVSS
polyreactivity (PSR sort gate): low polyreactivity

QVQLVESGGGLVQAGGSLRLSCAASGSTFSPYAMGWYRQAPGKERELVANITISGGSTYYADSVKGRFTISRDNAKNTVYIQMNSLKPEDTAVYYCNADSLIRWLFTVVIFDYWGQGTLVTVSS
polyreactivity (PSR sort gate): low polyreactivity

QVHLVESGGVIVQAGGILRLSCAASGNIFTYYVMGWYRQAPGKERELVAAISRRGGSTYYADSVKGRFTISRDIAKNTVYLQMNSLKPEDTAVYYCAKKYPRDMDYWGQVTQVTVSS
polyreactivity (PSR sort gate): high polyreactivity

QVQLGESGRGLVQAGGSLRLSCAASGRTSWYYAMGWYSQAPGKERELVATSTRSTGSTYYADSVKGRFTISRDNAKNTVYLQMNSLKPEDTAVYYCAKRRKTQPFYIKWYRVDYWGQGTQVTVST
polyreactivity (PSR sort gate): high polyreactivity

QVQLVESGGGLVQAGGSLRLSCAASGFTFRYYAMGWYRQAPGKERELVAGISRGGSTYYADSVKGRFTISRDNAKNSVYLQMNSLKPEDTAVYYCAARSYARKSYEMGYWGQGTQVTVSS
polyreactivity (PSR sort gate): high polyreactivity

QDQLVESGGGLVQAGGSLRLSCAASGSTFGYYAMGWYRKAPGKERELVAAITSGASTNYADSVKGRFTISRDNAKNTVYLQMNSLKPEDTAVSYCAAGFQTRTPLNEFDYWGQGTQVTVSS
polyreactivity (PSR sort gate): low polyreactivity

QVQLVESGGGLVQAGGSLRLSCAASGFIIVYYAMGWYRQAPGKERELVAAITSSGGSTYYADSVKGRFTISRDNAKNTVYLQMNSLKPEDTAVYYCNRVWYATDFVNTMGYWGQGTQGTVSS
polyreactivity (PSR sort gate): low polyreactivity

QVQHVESGGGLVQAGGSLRLSCAASGSIIRGNCMGWYRQAPGKERELVAAISRSGGRTYYADSVKGRFTFSRDNAKNTVYLQMNSLKPEDTAVYYFAKDRSGSYYNFPEYDYWGQGTQVTVSS
polyreactivity (PSR sort gate): high polyreactivity

QVQLVESGGGLVQAGGSLRLSCAASGFTFSYNAMGWYRPAPGKERELVAVITKSGGSTYYADSVKGRFTISRDNAKNTVYLQMNSLKPEDTAVYYCNRQIKKLLTTHYYWGQGTQVTVSS
polyreactivity (PSR sort gate): high polyreactivity

QVQLVESGGGLVQAGGSRRLSCAASGSTFYGYAMGWYRQAPGKEREFVAAITTSGGSTYYADSVKGRFTISRDNAKNTVYLQMNSLKPEDTAVYYCARDLYTEYRWGRLTYDYWGQGTQVTVSS
polyreactivity (PSR sort gate): low polyreactivity

QVQLVESGGGLFQEGGSLRLSCAASGFTFLYYDMGWYRQAPGKERELVAAINSSGGGTYYADSVKGRFTISRDNAKNTVYLQMNSLKPEDTAVYYCAVSWSDGYDYWGQGTQVTVSS
polyreactivity (PSR sort gate): high polyreactivity

QVQLVESGGGLVQAGGSLRLSCAASGRTFKRNAMGWYRQAPGKERELVAGISGSGTTTYYADSVKGRFTISRDNAKNTVYLQMNSLKPEDTAVYYCAARALSHGARYDYWGQGTQVTVSS
polyreactivity (PSR sort gate): high polyreactivity

QVQLVESGGGLVHAGGSLRLSCAASGRIFYVYAMGWYRQAPGKEREFVASISWSGGSTYYADSVKGRFTISRDNAKNTVYLQMNSLKPEDTAVYYCAARVVRYGYKYYYWGQCTQVTVSS
polyreactivity (PSR sort gate): low polyreactivity

QVQLVESGGGLVQAGGSLRLSCAASGLIFANYAMGWYRQAPGKERELVAAITWSGGTTYYADSVKGRFTISRDNAKNTVYLQMNSLKPEDTAVYYCAAEVPYYQAAEYDYWGQGTQVTVSS
polyreactivity (PSR sort gate): low polyreactivity

QVQLVESGGGLVQAGGSLRLSCAASGYTFSHYAMGWYRQAPGKERELVAGITWSGGSTYYADSVKGRFTISRDYAKNTVYLQMNSLKPEDTSVYYCAAKYYWYYSYSGIPLFDYWGQGTQVTVSS
polyreactivity (PSR sort gate): low polyreactivity

QVQLVESGGGLVQAGGSLRLSCAASGRILYAYAMGWYRQAPGKERELVAAITWGGGNTYYADSVKGRFTISRDNAKNTVYLQMNSLKPEDTAVYYCAADASTVYSTVPEYDFWGQGTQVTVSS
polyreactivity (PSR sort gate): low polyreactivity

QDQLVESGGGLVEAGGSLRLSCAASGITFSWYAMVWKRQAPGKEREFVAAISPGGTSTYYADSVKGRFTISRDNAKKTVYLQMNSLKPEDTAFYYCAVQWLYPYDYWGHGTQVTVSS
polyreactivity (PSR sort gate): high polyreactivity

QVQLVESGGGLVQAGGSLRLSSAASGFTFDCNTMGWYRQAPGKERELVALISSTGGRTYYADSVQGRFSISRDNAKNTVYLQMNSLKPEDTAGSYCNKRRRNPVGYDYWGLGTQVTVSS
polyreactivity (PSR sort gate): high polyreactivity

QVQLVESGGGLVQAGGSLRLSCAASGRIFKPYVMGWYRQAPGKERELGAAISWGGGRTYYADSVKGRFTISRDNAKNTVYLQMNSLKPEDTAVYYCAAPRRFDYDWGQGTQVTVSS
polyreactivity (PSR sort gate): low polyreactivity

QVQLVESGGGLVQAGGSLRLSCAASGFILIRNGMGCYRQAPGKERELVAAISRSGRTYYADSVKGRFTISRDNAKNTVYLQMNSLKPEDTAVYYCAKRDYLYGRYDYSGQGTQVTVSS
polyreactivity (PSR sort gate): high polyreactivity

QVQLVESGGGLVQAGGSLRLSCAASGSIFEDYAMGWYRQAPGKERELDAAIDWGDGDTYYADSVKGRFTISRDNAKNSVYLQMNSLKPEDTAVYYCAADLVGYSGDYFDEEYYWGQGTQVTVSS
polyreactivity (PSR sort gate): high polyreactivity

QVQLVESGGGLVQAGGSLILSCAASYAMGWYRQAPGKERELVATIKSGGVSTYYADSVKGRFTISRDNAKNTVYLQMNCLKPEDTAVYDCAANASHSTSADYDYWGQGTQVTVSS
polyreactivity (PSR sort gate): low polyreactivity

QVHLVESGGGLVQAGGSLRISCAASGFTFRYNAMGWNRQAPGKERELVAAISRGTITNYADSVKGRFTISRDNAKNTVYLQMNSLKPEDTAVYYCAARYPGHFRFYYWGQGTQVTVSS
polyreactivity (PSR sort gate): high polyreactivity

QVQLVESGGGLVQAGGSLRLSCAASGSIFRPSAMGWYRQAPGKERELVAAIRWSTGNTYYADSVKGRFTISRDNAKNTVYLQMNSLKPEDTAVYYCAAAYWPVVWFYYWGQGTQVTVSS
polyreactivity (PSR sort gate): low polyreactivity

QVQLVESGGGLVQAGGSLRLSCAASGRTFSFYAMGWYRQAPGKERELVAAISSGGGRTYYADSVKGRFTISRDNAKNTVYLQMHSLKPEDTAVYYCAAYRAYSGEFDYWGQGTQVTVSS
polyreactivity (PSR sort gate): high polyreactivity

QVQLVESGGGLVQAGGSLRLSCAAYGSTFGHYAMGWDRQAPGKERELVAAISSSGGSTYYADSVKGRFTISRDNAKNTVYLQMNSLKPEDTAVYYCAARYYHYSYAFGYWGQGTQVTVSS
polyreactivity (PSR sort gate): high polyreactivity

QVQLVESGGGLVQAGGSLRLSCAASGIIFGYYAMGWYRQAPGKERELVAAISWSGVSTYYADSVKGRFTISRDNAKNTVYLQMHSLKPEDTAVYYCAVGYVLTGVFQARFDYWGQGTQVTVSS
polyreactivity (PSR sort gate): high polyreactivity

QVQLVDSGGGLFQAGGSHRLSFAASGSILRSNAMGWYRQAPGKERELVAVINGSGGRTYYADSVKGRFTISRDNAKNTVYLQMNSLKPEDTAVYYCNADPGGRYPRRGYAHEGDYWGQGTKVTVSS
polyreactivity (PSR sort gate): low polyreactivity

QVQLVESGGGLVQAGGSLRLSCAASGRIFAKYAMGWYRQAPGKERELVAAISLSGGRTYYADSVKGRFTISRDNAKNTVYLQMNSLKPEDTAVYYCAAEFYPIRYYGGYDYWGQGTQVTVSS
polyreactivity (PSR sort gate): low polyreactivity

QVQLVESGGGLVQAGGSLRLSCAASGRIFVGYAMGWSRQAPRNERELVAAISDRGGNTYYADSVKGRFTISRDNAKNTVYFQMNSLKPEDTAVYYCAKEVRWWYGYWGQGTQVTVSS
polyreactivity (PSR sort gate): high polyreactivity

QVQLVESGGGLVQAGGSLRLSCAASGRIFFWNALGWYRQAPGKEREFVATISWNDAITYYADSVKGRFTISRDNAKNTVYLQMNSLKPEDTAVYYCNVDPKIVFSFGYDYWGQGTQVTVSS
polyreactivity (PSR sort gate): low polyreactivity

QVQLVESGGGLVQAGGSLRLSCAASGFTFYRNAMGWYRQAPGKERELVAAINYSGGSTYFADSVKGRFTISRDNAKNTVYLQMNSLKPEVTAVYYCAVPYNYYRYHYSGYDYWGQGTQVTVSS
polyreactivity (PSR sort gate): high polyreactivity

QVQLVESGGGLVQAGGSLRLSCAASGRTIRRNAMGWYRQAPGKERELVAGISGSGTITYADSVKGRFTISRDNAKNTVYLQMNSLKPEDTAVYYCAARRKSFYTFYYWGQGTQVTVSS
polyreactivity (PSR sort gate): high polyreactivity

QVQLVESGGGLVQAGGSLRLSCAASGSIFGKNAMGWYRQAPGKERELVAAISATGSRTYYADSVKGRFTISRDNAKNTVYLQMISLKPEETAVYSCTKLVRGVRPEEYDYGGQGTQVTVSS
polyreactivity (PSR sort gate): high polyreactivity
